According to patent US20200140835:

Legend:
[1] = test system: Helical-III domain of SpCas9, supplied in trans
[2] = test system: SpCas9 delta-Helical-III deletion F498-Q712 replaced by GGS linker (Streptococcus pyogenes); test: cleavage_in_vitro; details: Helical-III in trans rescues ~100-fold; 5 mM MgCl2

Row | Substance | cleavage with a PAM-distal mismatched target [1] | on-target cleavage rate (radiolabeled DNA cleavage assay) [1] | activity (fold decrease vs WT) [2]
1 | SpCas9ΔHelical-III (ΔF498-Q712 with GGS linker) | had no effect on cleavage with a PAM-distal mismatched target | rescued the on-target cleavage rate by ˜100-fold in a concentration-dependent manner | –
2 | lambda1-targeting sgRNA ; lambda1 on-target DNA | – | – | 1000
